Measurements from patent US20030228258A1.

Columns and labels:
[1] = molecular target: T cell receptors of the mouse p60217-225-specific CD8+ T cell line (mouse); experiment: cell-based or functional assay
[2] = molecular target: T cell receptors of the mouse LLO91-99-specific CD8+ T cell line (mouse); experiment: cell-based or functional assay
[3] = molecular target: T cell receptors of the human Flu-specific (Flu58-66) CD8+ T cell line (human); experiment: flow cytometry, tetramer staining at 37 C, 8 h incubation
[4] = molecular target: T cell receptors of the human Flu-specific (Flu58-66) CD8+ T cell line (human); experiment: flow cytometry, tetramer staining of CD8+ T cell line
[5] = molecular target: T cell receptors of the human Flu-specific (Flu58-66) CD8+ T cell line (human); experiment: flow cytometry, tetramer staining at 37 C, 24 h incubation
[6] = molecular target: T cell receptors of the human Flu-specific (Flu58-66) CD8+ T cell line (human); experiment: flow cytometry, tetramer staining at 37 C, 1 h incubation
[7] = molecular target: T cell receptors of the human Flu-specific (Flu58-66) CD8+ T cell line (human); experiment: flow cytometry, tetramer staining at 37 C, column headed 2 h
[8] = molecular target: T cell receptors of the mouse p60217-225-specific CD8+ T cell line (mouse); experiment: flow cytometry, tetramer staining of CD8+ T cell line
[9] = molecular target: T cell receptors of the mouse LLO91-99-specific CD8+ T cell line (mouse); experiment: flow cytometry, tetramer staining at 37 C, 8 h incubation
[10] = molecular target: T cell receptors of the mouse LLO91-99-specific CD8+ T cell line (mouse); experiment: flow cytometry, tetramer staining of CD8+ T cell line
[11] = molecular target: T cell receptors of the mouse LLO91-99-specific CD8+ T cell line (mouse); experiment: flow cytometry, tetramer staining at 37 C, 1 h incubation
[12] = molecular target: T cell receptors of the mouse LLO91-99-specific CD8+ T cell line (mouse); experiment: flow cytometry, tetramer staining at 37 C, column headed 2 h

With “225Ac-labeled LLO91 tetramer (225Ac-DOTA-biotin, LLO91/H-2K^d monomers, streptavidin) (from UniProt P61769 21-119; P22629 37-163; P01902 22-305) (peptide-MHC)” the IFN-γ ELISPOT, spots, non-treated vs treated with 10 nCi/ml for 72 hr (specific IFN-γ spots (treated)) [1] was 105, the cell killing (ED50) [1] was 100 to 200 nCi/ml and the IFN-γ ELISPOT, spots, non-treated vs treated with 10 nCi/ml for 72 hr (specific IFN-γ spots (treated)) [2] was 83. For the same substance, the cell killing (ED50) [2] was 4 to 8 nCi/ml.

With “LMP1/HLA-A2 tetramer (PE- or FITC-streptavidin, non-radiolabeled) (from UniProt P61769 21-119; P22629 37-163) (peptide-MHC)” the % tetramer binding of CD8+ T cells [3] was 1.5%, the % of CD8+ T cells stained with the tetramer [4] was 1% and the % tetramer binding of CD8+ T cells [5] was 1%. The % tetramer binding of CD8+ T cells [6] was 0.9% and the % tetramer binding of CD8+ T cells [7] was 1.2%.

“p60217-225/H-2K^d tetramer (from UniProt P61769 21-119; P22629 37-163; P01902 22-305) (peptide-MHC)” was tested, and the % of CD8+ T cells stained positive for the tetramer [8] was 70%.

In the case of “LLO91-99/H-2K^d tetramer (fluorescent, non-radiolabeled) (from UniProt P61769 21-119; P22629 37-163; P01902 22-305) (peptide-MHC)”, the % tetramer binding of CD8+ T cells [9] is reported as 63%, the % of CD8+ T cells stained with the tetramer [8] is reported as 1.3% and the % of CD8+ T cells that bound the tetramer [10] is reported as 76%. It also gave a % tetramer binding of CD8+ T cells [11] of 76% and a % tetramer binding of CD8+ T cells [12] of 75%.
